Assay results from the supplement of paper PMC7877785.
± gives the uncertainty stated by the source.

Experiment: self-splicing fitness, log relative to wild type (ln ratio); higher = more splicing; Tetrahymena group I intron in knt gene, E. coli kanamycin selection, DiMSum; sequences stand for … in CUCUCU…GGAGGGAAAAGUUAUCAGGCAUGCACCUGGUAGCUAGUCUUUAAACCAAUAGAUUGCAUCGGUUUAAAAGGCAAGACCGUCAAAUUGCGGGAAAGGGGUCAACAGCCGUUCAGUACCAAGUCUCAGGGGAAACUUUGAGAUGGCCUUGCAAAGGGUAUGGUAAUAAGCUGACGGACAUGGUCCUAACCACGCAGCCAAGUCCUAAGUCAACAGAUCUUCUGUUGAUAUGGAUGCAGUUCACAGACUAAAUGUCGGUCGGGGAAGAUGUAUUCUUCUCAUAAGAUAUAGUCGGACCUCUCCUUAAUGGGAGCUAGCGGAUGAAGUGAUGCAACACUGGAGCCGCUGGGAACUAAUUUGUAUGCGAAAGUAUAUUGAUUAGUUUUGGAGUACUCGUGGUCG
Outline: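 Library with all eight P1ex-region intron nucleotides randomised, intron inside the knt kanamycin-resistance gene on pET-22b(+), in E. coli BL21(DE3). Cells grew overnight at 37°C or 30°C on LB agar with or without 25 μg/mL kanamycin (plus 100 μg/mL carbenicillin, 50 μM IPTG, 0.2% rhamnose), in six replicate transformations. Pooled colonies were amplicon-sequenced on Illumina HiSeq 2500. DiMSum fitness is the error-weighted combination of wild-type-normalised replicate fold changes, kanamycin versus none.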

Row | Sequence | self-splicing fitness (ln) (30 °C) | self-splicing fitness (ln) (37 °C)
1 | CAAAAGCAAUAUUACGGUGC | -3.76 ± 0.24 | -2.8 ± 0.24
2 | ACGGAGCAAUAUUACGCUGG | -3.77 ± 0.29 | -1.2 ± 0.18
3 | ACGGAGCAAUAUUACGGUAA | -2.95 ± 0.49 | -3.1 ± 0.28
4 | AGAUAGCAAUAUUACGGGUU | -2.78 ± 0.2 | -2.29 ± 0.25
5 | CUGAAGCAAUAUUACGCCCG | -0.0662 ± 0.23 | 0.309 ± 0.24
6 | GGAGAGCAAUAUUACGCUAG | -1.3 ± 0.36 | -0.901 ± 0.42
7 | UGUAAGCAAUAUUACGUCGG | -1.67 ± 0.13 | -1.95 ± 0.14
8 | AUGUAGCAAUAUUACGCUAU | -3.81 ± 0.23 | -2.6 ± 0.23
9 | UGGCAGCAAUAUUACGACCG | -0.969 ± 0.27 | -0.245 ± 0.42
10 | AUACAGCAAUAUUACGAGGC | -2.99 ± 0.19 | -2.23 ± 0.2
11 | CAAAAGCAAUAUUACGCCCC | -3.27 ± 0.3 | 
12 | UCUCAGCAAUAUUACGUUGG | -3.58 ± 0.14 | -3.73 ± 0.23
13 | CGAGAGCAAUAUUACGCGCA | -3.56 ± 0.48 | -1.38 ± 0.26
14 | GAAUAGCAAUAUUACGGGGU | -3.77 ± 0.21 | -3.71 ± 0.21
15 | AUAUAGCAAUAUUACGAUGA | -0.834 ± 0.16 | -0.885 ± 0.17
16 | CGGAAGCAAUAUUACGUCUA | -0.422 ± 0.097 | -0.659 ± 0.076
17 | CGUUAGCAAUAUUACGUGCA | -1.38 ± 0.11 | -0.0413 ± 0.11
18 | UUCGAGCAAUAUUACGGGUA | -1.16 ± 0.18 | -1.36 ± 0.15
19 | AUAGAGCAAUAUUACGCAAC |  | -1.78 ± 0.41
20 | GCGCAGCAAUAUUACGAUAU | -1.18 ± 0.078 | -0.433 ± 0.1
21 | AGGGAGCAAUAUUACGUUAU | -3.84 ± 0.34 | -2.94 ± 0.25
22 | UUGGAGCAAUAUUACGGUCG | -2.36 ± 0.28 | 
23 | GAUGAGCAAUAUUACGAGCG | -2.62 ± 0.44 | 
24 | GGAGAGCAAUAUUACGCGGU | -3.77 ± 0.47 | 
25 | CGAAAGCAAUAUUACGUUGC | -4.09 ± 0.17 | -3.23 ± 0.2

Row | Sequence | self-splicing fitness (ln) (30 °C) | self-splicing fitness (ln) (37 °C)
26 | GACAAGCAAUAUUACGCUAG | -2.28 ± 0.081 | -1.36 ± 0.089
27 | CAUAAGCAAUAUUACGCCUC | -2.88 ± 0.39 | -1.75 ± 0.41
28 | GAGAAGCAAUAUUACGGCCU | -0.28 ± 0.07 | 0.2 ± 0.089
29 | CGGCAGCAAUAUUACGGCGU | -1.6 ± 0.097 | -0.949 ± 0.1
30 | AAGAAGCAAUAUUACGGCGG | -0.903 ± 0.1 | -0.664 ± 0.12
31 | CGCGAGCAAUAUUACGGAUA | -1.66 ± 0.27 | 
32 | CAAGAGCAAUAUUACGGCCU | -3.5 ± 0.25 | -1.27 ± 0.33
33 | CCUAAGCAAUAUUACGGAGA |  | -1.46 ± 0.22
34 | GGUCAGCAAUAUUACGCUCU | -1.58 ± 0.2 | 0.397 ± 0.34
35 | AUAAAGCAAUAUUACGUACA | -0.00533 ± 0.067 | 0.315 ± 0.098
36 | AGCCAGCAAUAUUACGAAGC | -1.65 ± 0.22 | -1.96 ± 0.37
37 | UUGGAGCAAUAUUACGUAAU | -3.28 ± 0.19 | -2.38 ± 0.31
38 | CGGUAGCAAUAUUACGUAAC | -3.22 ± 0.4 | -2.06 ± 0.41
39 | AUGCAGCAAUAUUACGCCAU | -1.53 ± 0.18 | -2.28 ± 0.35
40 | GGUAAGCAAUAUUACGUUUC | -3.52 ± 0.27 | 0.249 ± 0.15
41 | CCCGAGCAAUAUUACGUGGA | -3.08 ± 0.21 | -2.81 ± 0.22
42 | CACUAGCAAUAUUACGCCGC |  | -2.58 ± 0.5
43 | GUACAGCAAUAUUACGUCCG | -3.2 ± 0.23 | -1.74 ± 0.17
44 | AACCAGCAAUAUUACGUUGG | -3.14 ± 0.12 | -2.42 ± 0.13
45 | CCUGAGCAAUAUUACGUUAU | -3.15 ± 0.26 | -1.96 ± 0.21
46 | GCCGAGCAAUAUUACGUGUG | -1.43 ± 0.07 | -0.815 ± 0.081
47 | UCGGAGCAAUAUUACGUCGG | -1.7 ± 0.24 | -2.04 ± 0.28
48 | ACCAAGCAAUAUUACGACAC | -1.29 ± 0.093 | -1.3 ± 0.13
49 | UUGUAGCAAUAUUACGUAAG | -2.25 ± 0.17 | -1.02 ± 0.16
50 | GACAAGCAAUAUUACGCGCG | -0.648 ± 0.091 | -0.467 ± 0.11
